In patent US20240084023A1 (NGM BIOPHARMACEUTICALS, published 2024):

Columns and labels:
[1] = target: T1, soluble human GCGR extracellular domain (human, UniProt P47871 26-136, limits assumed); test: Octet epitope binning; antibody in solution on GCGR ECD held by immobilized 6B5 (competitor)
T1 construct: also called soluble GCGR
Description: (§1) KD values for exemplary antibodies were derived using ForteBio software. Exemplary antibodies 6B5, 13G19, 14E9, 14F4, 4F8, 1G7, l A8, I H7, 1A2, 1B4, 1C1, 1H2, 1C3, and 1D2 were immobilized on biosensor tips. Soluble human GCGR extracellular domain (500 nM) was incubated with the antibodies for 3 minutes. […] The biosensor tips with bound antibody-GCGR complex were then dipped in 61B5, 5B11, or 3H-15 antibody solution and the change in signal measured as a nm shift. If the antibody in solution recognized the same epitope as the antibody immobilized on the chip surface, then <0.1 nm shift in signal (noise level of Octet) would be observed. If the antibody in solution recognized a distinct epitope relative to the immobilized antibody, an increase in signal of >0.15 nm shift would be observed. In the latter scenario, the antibody in solution could bind to the immobilized antibody-GCGR complex (presumably to a different epitope) resulting in the observed increase in signal.

[2] = target: T1, soluble human GCGR extracellular domain; test: Biacore SPR, captured antibody, soluble human GCGR extracellular domain as analyte
Description: In some experiments, supernatants were screened for binding to human GCGR using a Biacore SPR system. Briefly, anti-mouse Fc antibody (Sigma-Aldrich) was immobilized on all four flow cells of a CM5 chip using amine coupling reagents (GE Healthcare LifeSciences). Hybridoma supernatants were diluted three-fold with PBS-P buffer (PBS containing 0.005% P20) and injected for 30 seconds overflow cells 2, 3 and 4 to capture the test antibodies and using flow cell 1 as a reference. The next step was an injection of soluble human GCGR extracellular domain (100 nM in PBS-P buffer) at a flow rate of 50 μL/min and monitoring of the binding kinetics at 25° C. Kinetic data were collected over time and fit using the simultaneous global fit equation to yield affinity constants (KD values) for each antibody.

[3] = target: T1, soluble human GCGR extracellular domain; test: Octet epitope binning; antibody in solution on GCGR ECD held by immobilized 1A8 (competitor)
Description: as §1

[4] = target: T1, soluble human GCGR extracellular domain; test: Octet epitope binning; antibody in solution on GCGR ECD held by immobilized 1C1 (competitor)
Description: as §1

[5] = target: T1, soluble human GCGR extracellular domain; test: Octet epitope binning; antibody in solution on GCGR ECD held by immobilized 4F8 (competitor)
Description: as §1

[6] = target: T1, soluble human GCGR extracellular domain; test: Octet epitope binning; antibody in solution on GCGR ECD held by immobilized 1D2 (competitor)
Description: as §1

[7] = target: T1, soluble human GCGR extracellular domain; test: Octet epitope binning; antibody in solution on GCGR ECD held by immobilized 1G7 (competitor)
Description: as §1

[8] = target: T1, soluble human GCGR extracellular domain; test: Octet epitope binning; antibody in solution on GCGR ECD held by immobilized 1H2 (competitor)
Description: as §1

[9] = target: T1, soluble human GCGR extracellular domain; test: Octet epitope binning; antibody in solution on GCGR ECD held by immobilized 1B4 (competitor)
Description: as §1

[10] = target: T1, soluble human GCGR extracellular domain; test: Octet epitope binning; antibody in solution on GCGR ECD held by immobilized 13G9 (competitor)
Description: as §1

[11] = target: full-length human GCGR on CHO cells (human, UniProt P47871 26-477); test: cell-based or functional assay
Chain of full-length human GCGR on CHO cells (P47871 26-477): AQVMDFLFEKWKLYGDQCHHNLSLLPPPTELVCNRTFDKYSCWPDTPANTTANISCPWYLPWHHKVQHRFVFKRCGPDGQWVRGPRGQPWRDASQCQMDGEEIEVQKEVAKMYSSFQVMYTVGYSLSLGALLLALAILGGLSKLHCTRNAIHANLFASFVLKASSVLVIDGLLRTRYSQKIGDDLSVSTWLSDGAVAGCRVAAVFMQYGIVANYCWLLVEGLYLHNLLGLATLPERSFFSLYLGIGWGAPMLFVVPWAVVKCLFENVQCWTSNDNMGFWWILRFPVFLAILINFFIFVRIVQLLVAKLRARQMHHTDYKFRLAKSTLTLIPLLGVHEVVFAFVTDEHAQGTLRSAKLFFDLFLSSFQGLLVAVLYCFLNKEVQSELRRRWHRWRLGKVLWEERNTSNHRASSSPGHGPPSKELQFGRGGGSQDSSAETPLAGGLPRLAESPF

[12] = target: T1, soluble human GCGR extracellular domain; test: Octet epitope binning; antibody in solution on GCGR ECD held by immobilized 1C3 (competitor)
Description: as §1

[13] = target: T1, soluble human GCGR extracellular domain; test: Octet epitope binning; antibody in solution on GCGR ECD held by immobilized 14E9 (competitor)
Description: as §1

[14] = target: T1, soluble human GCGR extracellular domain; test: Octet epitope binning; antibody in solution on GCGR ECD held by immobilized 1A2 (competitor)
Description: as §1

[15] = target: T1, soluble human GCGR extracellular domain; test: Octet epitope binning; antibody in solution on GCGR ECD held by immobilized 1H7 (competitor)
Description: as §1

[16] = target: T1, soluble human GCGR extracellular domain; test: Octet epitope binning; antibody in solution on GCGR ECD held by immobilized 14F4 (competitor)
Description: as §1

T1 sequence (P47871 26-136 limits assumed): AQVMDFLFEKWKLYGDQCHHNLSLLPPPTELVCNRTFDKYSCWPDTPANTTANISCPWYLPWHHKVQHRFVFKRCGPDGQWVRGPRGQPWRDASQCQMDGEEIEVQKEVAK

Shift on Octet by Antibody in Solution (nm) [1]: < 0.05 nm
Kd [2]: 2.2 nM
Shift on Octet by Antibody in Solution (nm) [3]: < 0.05 nm
Shift on Octet by Antibody in Solution (nm) [4]: < 0.05 nm
Shift on Octet by Antibody in Solution (nm) [5]: < 0.05 nm
Shift on Octet by Antibody in Solution (nm) [6]: < 0.05 nm
Shift on Octet by Antibody in Solution (nm) [7]: < 0.05 nm
Shift on Octet by Antibody in Solution (nm) [8]: < 0.05 nm
Shift on Octet by Antibody in Solution (nm) [9]: < 0.05 nm
Shift on Octet by Antibody in Solution (nm) [10]: < 0.05 nm
cAMP assay-1 IC50 [11]: 24.6 nM
Shift on Octet by Antibody in Solution (nm) [12]: < 0.05 nm
Shift on Octet by Antibody in Solution (nm) [13]: < 0.05 nm
Shift on Octet by Antibody in Solution (nm) [14]: < 0.05 nm
Shift on Octet by Antibody in Solution (nm) [15]: < 0.05 nm
Shift on Octet by Antibody in Solution (nm) [16]: < 0.05 nm
B1: anti-GCGR antibody 3H5 (antibody, V domains shown)
VH: QVQLQQSGAELVKPGASVRLSCKASGNTFTNYWMHWVKQRPGQGLEWIGMIHPNSGSTHYNEKFKNKATLTVDKSSNTAYMQLSGLTSEDSAVYYCGATADYVMDYWGQGTSVTVSS
VL: DIVLTQTPLSLPVNIGDQASISCKSTKSLLNSDGFTYLDWYLQKPGQSPQLLINLVSNRFSGVPDRFSGSGSGTEFILKISRVEAEDLGVYYCFQSNFLPLTFGAGTKLELK
notes: mouse hybridoma monoclonal antibody; also called 3H-15
